Measured values as given in the supplement of paper PMC10567573.

B1: MFF (parent)
chain: YTEGISQRMRVPEKLKVAPPNADL

Variants of: B1
Assay: protein stability index of a GFP-peptide fusion (GPS, HEK-293T) (PSI 1-6); higher = more stable
Details: c terminus: a fixed tail appended
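Further: lentivirally expressed fusions sorted by FACS into six bins by GFP to DsRed ratio, PSI derived from sequencing read proportions per bin multiplied by bin number.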

Variant | protein stability index
YTEGISFRMRVPEKLKVAPPNADL [Q7F] | 1.82
YTEGISWRMRVPEKLKVAPPNADL [Q7W] | 2.21
YTEGISNRMRVPEKLKVAPPNADL [Q7N] | 2.74
YTEGISIRMRVPEKLKVAPPNADL [Q7I] | 2.85
YTEGISGRMRVPEKLKVAPPNADL [Q7G] | 2.65
YTEGISARMRVPEKLKVAPPNADL [Q7A] | 2.97
YTEGISCRMRVPEKLKVAPPNADL [Q7C] | 2.9
YTEGISQRNRVPEKLKVAPPNADL [M9N] | 2.96
YTEGISQRVRVPEKLKVAPPNADL [M9V] | 2.35
YTEGISQRERVPEKLKVAPPNADL [M9E] | 2.89
YTEGISQRFRVPEKLKVAPPNADL [M9F] | 3.02
YTEGISQRCRVPEKLKVAPPNADL [M9C] | 2.49
YTEGIRQRMRVPEKLKVAPPNADL [S6R] | 2.94
YTEGINQRMRVPEKLKVAPPNADL [S6N] | 2.93
YTEGIHQRMRVPEKLKVAPPNADL [S6H] | 2.63
YTEGIEQRMRVPEKLKVAPPNADL [S6E] | 3.91
YTEGIWQRMRVPEKLKVAPPNADL [S6W] | 2.52
YTEGIIQRMRVPEKLKVAPPNADL [S6I] | 2.51
YTEGIFQRMRVPEKLKVAPPNADL [S6F] | 2.14
YTEGIMQRMRVPEKLKVAPPNADL [S6M] | 2.09
YTEGISQRMRVPESLKVAPPNADL [K14S] | 3.38
YTEGISQRMRVPEVLKVAPPNADL [K14V] | 2.72
YTEGISQRMRVPEELKVAPPNADL [K14E] | 3.17
YTEGISQRMRVPEFLKVAPPNADL [K14F] | 2.96

Variant | protein stability index
YTEGISQRMRVPEHLKVAPPNADL [K14H] | 2.88
YTEGISQRMRVPEQLKVAPPNADL [K14Q] | 3.41
YTEGISQRMRVPEGLKVAPPNADL [K14G] | 3.28
YTEGISQRMRVPEYLKVAPPNADL [K14Y] | 2.44
YTEGISQRMRVPFKLKVAPPNADL [E13F] | 2.35
YTEGISQRMRVPSKLKVAPPNADL [E13S] | 3.18
YTEGISQRMRVPCKLKVAPPNADL [E13C] | 2.53
YTEGISQRMRVPRKLKVAPPNADL [E13R] | 2.9
YTEGISQRMRVPDKLKVAPPNADL [E13D] | 2.86
YTEGISQRMRVPAKLKVAPPNADL [E13A] | 2.95
YTEGISQRMRVPMKLKVAPPNADL [E13M] | 2.64
YTEGISQRMRVPGKLKVAPPNADL [E13G] | 2.18
YTEGISQRMRVPLKLKVAPPNADL [E13L] | 2.33
YTEGISQRMRVPQKLKVAPPNADL [E13Q] | 2.65
YTEGISQRMRVPEKLKVAPINADL [P20I] | 2.75
YTEGISQRMRVPEKLKVAPFNADL [P20F] | 2.01
YTEGISQRMRVPEKLKVAPWNADL [P20W] | 2.35
YTEGISQRMRVPEKLKVAPNNADL [P20N] | 3.12
YTEGISQRMRVPEKLKVAPGNADL [P20G] | 2.91
YTEGISQRMRVPEKLKVAPDNADL [P20D] | 3.04
YTEGISQRMRVPEKLKVAPRNADL [P20R] | 2.75
YTEGISQRMRVPEKLKVAPTNADL [P20T] | 2.69
YTEGISQRMRVPEKLKVAAPNADL [P19A] | 2.51
YTEGISQRMRVPEKLKVARPNADL [P19R] | 2.43

Variant | protein stability index
YTEGISQRMRVPEKLKVATPNADL [P19T] | 2.51
YTEGISQRMRVPEKLKVALPNADL [P19L] | 3.41
YTEGISQRMRVPEKLKVAQPNADL [P19Q] | 2.67
YTEGISQRMRVPEKLKVAGPNADL [P19G] | 2.78
YTEGISQRMRVPEKLKVAIPNADL [P19I] | 2.52
YTEGISQRMRVPEKLKVAKPNADL [P19K] | 2.71
YTEGISQRMRVPEKLKVANPNADL [P19N] | 2.78
YTEGISQRMRVPEKLKVAMPNADL [P19M] | 2.32
YTEGISQRMRVPEKLKVADPNADL [P19D] | 3.37
YTEGISQRMRVPEKLKVACPNADL [P19C] | 3.25
YTEGISQRMRVPEKLKVAPPNAFL [D23F] | 2.47
YTEGISQRMRVPEKLKVAPPNAHL [D23H] | 2.95
YTEGISQRMRVPEKLKVAPPNAYL [D23Y] | 2.57
YTEGISQRMRVPEKLKVAPPNAVL [D23V] | 2.12
YTEGISQRMRVPEKLKVAPPNACL [D23C] | 2.47
YTEGISQRMRVPEKLKVAPPNAAL [D23A] | 2.34
YTEGISQRMRVPEKLKVAPPNAIL [D23I] | 2.29
YTEGISQRMRVPEKLKVAPPNAKL [D23K] | 2.63
YTEGISQRMRVPEKLKVAPPWADL [N21W] | 2
YTEGISQRMRVPEKLKVAPPGADL [N21G] | 2.72
YTEGISQRMRVPEKLKVAPPQADL [N21Q] | 2.9
YTEGISQRMRVPEKLKVAPPLADL [N21L] | 2.09
YTEGISQRMRVPEKLKVAPPRADL [N21R] | 3.19
YTEGISQRMRVPEKLKVAPPAADL [N21A] | 3.21

Variant | protein stability index
YTEGISQRMRVPEKLKVAPPHADL [N21H] | 2.91
YTEGISQRMRVPEKLKVAPPYADL [N21Y] | 2.5
YTEGISQRMRVPEKLKVAPPMADL [N21M] | 2.67
YTEGISQRMRVPEKLKVAPPSADL [N21S] | 3.24
YTEGISQRMRVPEKNKVAPPNADL [L15N] | 2.99
YTEGISQRMRVPEKSKVAPPNADL [L15S] | 3.15
YTEGISQRMRVPEKDKVAPPNADL [L15D] | 3.08
YTEGISQRMRVPEKTKVAPPNADL [L15T] | 2.71
YTEGISQRMRVPEKCKVAPPNADL [L15C] | 2.44
YTEGISQRMRVPEKPKVAPPNADL [L15P] | 3.05
YTEGISQRMRVPEKIKVAPPNADL [L15I] | 2.69
YTEGISQRMRVPEKVKVAPPNADL [L15V] | 3.09
YTEGISQRMRVPEKHKVAPPNADL [L15H] | 2.91
YTEMISQRMRVPEKLKVAPPNADL [G4M] | 2.52
YTESISQRMRVPEKLKVAPPNADL [G4S] | 3.88
YTEKISQRMRVPEKLKVAPPNADL [G4K] | 3.63
YTEWISQRMRVPEKLKVAPPNADL [G4W] | 2.25
YTEIISQRMRVPEKLKVAPPNADL [G4I] | 3
YTELISQRMRVPEKLKVAPPNADL [G4L] | 2.47
YTEVISQRMRVPEKLKVAPPNADL [G4V] | 3.21
YTEGISQRMRVPEKLKLAPPNADL [V17L] | 2.88
YTEGISQRMRVPEKLKTAPPNADL [V17T] | 2.89
